Series [1] concerns the molecule itself. Kind of series: crystal structure; sitting drop; protein 20 mg/ml incubated with 10 mM 2-phosphoglyceric acid in storage buffer; homodimer seen in the crystal.
Series [2] deals with the molecule itself. Kind of series: SEC; gel filtration elution profile of wild-type and point mutants of SmTPI; conditions not shown. A general note: In gel filtration, larger molecules generally elute earlier.

Here are results for two proteins from publication PMC6980832, “Crystal structures of Triosephosphate Isomerases from Taenia solium and Schistosoma mansoni provide insights for vaccine rationale and drug design against helminth parasites” (PLoS Neglected Tropical Diseases, 2020).

One may read the stoichiometry N as the number of molecules, sites or subunits per partner or assembly.

B1: Triosephosphate isomerase from Taenia solium (enzyme)
chain: GPHMTRKLFVGGNWKMNGSYSHINTFFDTLQKADTDPNADIVIGVPACYLKYAQDKAPKGIKIAAENCYKVGSGAFTGEISTEMIKDCGCEWVILGHSERRHIFGESNELIGEKVKHALDSGLNVIPCIGELLSEREAGKTNDVCFAQMDAIAKNVPSKEAWDKVVIAYEPVWAIGTGKTATPAQAQEVHKVVRDWIRKHVDAGIADKVRILYGGSVTASNAKDLGTQPDVDGFLVGGASLKPDFITIINARR
notes: three additional amino acids (Gly, Pro, His) before the initial methionine, left from the modified pET19 vector; triosephosphate isomerase, Taenia solium, GenBank AAG21132.1; all 250 amino acids visible in the crystal structure; also called TsTPI; source: E. coli strain devoid of its endogenous triosephosphate isomerase gene, purified (two purification steps)
As to B1, the binding result in series [1] was “binds”.

B2: Triosephosphate isomerase from Schistosoma mansoni (enzyme)
chain: GPHMSGSRKFFVGGNWKMNGSRDDNDKLLKLLSEAHFDDNTEVLIAPPSVFLHEIRKSLKKEIHVAAQNCYKVSKGAFTGEISPAMIRDIGCDWVILGHSERRNIFGESDELIAEKVQHALAEGLSVIACIGETLSERESNKTEEVCVRQLKAIANKIKSADEWKRVVVAYEPVWAIGTGKVATPQQAQEVHNFLRKWFKTNAPNGVDEKIRIIYGGSVTAANCKELAQQHDVDGFLVGGASLKPEFTEICKARQR
notes: three additional amino acids (Gly, Pro, His) before the initial methionine, left from the modified pET19 vector; triosephosphate isomerase, Schistosoma mansoni, XP_018647623; all 253 amino acids visible in the crystal structure; also called SmTPI; wild-type SmTPI; source: E. coli strain devoid of its endogenous triosephosphate isomerase gene, purified (two purification steps)
For the protein B2, the “stoichiometry N” value in series [2] stood at 2.
